Target: SLAMF7 (human) (UniProt Q9NQ25)
Test: cell-based or functional assay

B1: elotuzumab (antibody, INN chains, looked up, V domains shown)
VH: EVQLVESGGGLVQPGGSLRLSCAASGFDFSRYWMSWVRQAPGKGLEWIGEINPDSSTINYAPSLKDKFIISRDNAKNSLYLQMNSLRAEDTAVYYCARPDGNYWYFDVWGQGTLVTVSS
VL: DIQMTQSPSSLSASVGDRVTITCKASQDVGIAVAWYQQKPGKVPKLLIYWASTRHTGVPDRFSGSGSGTDFTLTISSLQPEDVATYYCQQYSSYPYTFGQGTKVEIKR
B1 was tested, and the g-NK cell-mediated cytotoxicity against elotuzumab-treated MM cell lines, correlation with SLAMF7 expression was 0.96 R^2.

From patent US20230190801A1
